What was measured:
[1] = target: T1, Purified bovine ubiquitin (bovine, UniProt P0CG53 1-76); assay: SPR; Biacore 2000, room temperature, HBS-EP buffer (10 mM HEPES pH 7.4, 150 mM NaCl, 3 mM EDTA, 0.005% Tween-20); GST-fusion proteins captured on a CM5 chip with a GST capture kit, free ubiquitin flowed over; conditions: both partners purified
T1 construct: ubiquitin, bovine, the cut product of the ubiquitin precursors; also called free ubiquitin; mono-ubiquitin in solution; source: bought: Millipore-Sigma (U6253)

[2] = target: T2, ubiquitin on ubiquitin-coated agarose beads (UniProt P0CG53 1-76); assay: pull-down; ubiquitin-coated agarose beads with 1 µM purified GST-fusion protein in Buffer A (25 mM HEPES–KOH pH 7.4, 125 mM potassium acetate, 2.5 mM magnesium acetate, 5 mM EGTA) + 1% FBS, 2 h at room temperature; uncoated CL4B beads as control; immunoblot with anti-GST or anti-Stx3; conditions: both partners purified
T2 construct: ubiquitin, the cut product of the ubiquitin precursors; Coupled to agarose; also called ubiquitin-coated beads; ubiquitin-coated (U) agarose beads; source: bought: Millipore-Sigma (ubiquitin-coated agarose)

B1: GST-fusion protein containing only the Habc domain (1–146) of Stx3 (domain or fragment, rat, UniProt Q08849 1-146, looked up)
chain: MKDRLEQLKAKQLTQDDDTDEVEIAIDNTAFMDEFFSEIEETRLNIDKISEHVEEAKKLYSIILSAPIPEPKTKDDLEQLTTEIKKRANNVRNKLKSMEKHIEEDEVRSSADLRIRKSQHSVLSRKFVEVMTKYNEAQVDFRERSK
notes: syntaxin 3 (Stx3), rat, N-terminal region with the Habc domain, residues 1-146; Cloned into pGEX-4T-3, which by my knowledge puts GST at the N-terminus; also called GST-Stx3-Habc; GST-Stx3-1–146; source: E. coli Rosetta 2, purified (glutathione agarose, eluted with glutathione, dialyzed)
[1]
  Kd: 1360 µM
[2]
  fold change of pull-down against the entire Stx3 cytoplasmic domain: 3.78 fold

B2: GST fusion protein of the constitutively open mutant of cytoplasmic region Stx3 (L165A/E166A) (domain or fragment, rat, UniProt Q08849 1-265, looked up)
chain: MKDRLEQLKAKQLTQDDDTDEVEIAIDNTAFMDEFFSEIEETRLNIDKISEHVEEAKKLYSIILSAPIPEPKTKDDLEQLTTEIKKRANNVRNKLKSMEKHIEEDEVRSSADLRIRKSQHSVLSRKFVEVMTKYNEAQVDFRERSKGRIQRQLEITGKKTTDEEAAEMLESGNPAIFTSGIIDSQISKQALSEIEGRHKDIVRLESSIKELHDMFMDIAMLVENQGEMLDNIELNVMHTVDHVEKARDETKRAMKYQGQARKKLI
notes: syntaxin 3 (Stx3), rat, cytoplasmic region, residues 1-265, with LE165/166AA; Made by site-directed mutagenesis in the Stx3 (1–265) pGEX-4T-3 plasmid; also called open-conformation mutant (LE165/166AA); source: E. coli Rosetta 2, purified (glutathione agarose, eluted with glutathione, dialyzed)
[2]
  fold change of pull-down against wild-type Stx3: 1.73 fold
